Source: US20100286021A1, “Methods of Modulating Prokineticin 2 for Treatment of Stress Response and Anxiety-Related Disorders” (priority 2007, published 2010)

Assays:
PK2 mRNA in the PVN = conditions: compared with induction by 24 hours of food deprivation
Description: In situ hybridization was performed for detection. Animals were killed and brains were quickly dissected and stored at −80° C. until use. In situ hybridization was performed on coronal sections as described previously. The ^35S-hybridized slices were then coated with Kodak NTB2 autoradiographic emulsion and exposed for 1 month at 4° C.

[1] = Hot-plate pain test, morphine-induced analgesia; type: in vivo; conditions: subcutaneous injection, various concentrations, 55° C. hot plate, WT vs PK2^-/- mice
Excerpt: FIGS. 6A-6C show impaired stress-induced analgesia in PK2^-/- mice. […] (a and b) The hot-plate latency was monitored before or after stress. Animals were stressed by 3-min of cold-water swimming (a) or 5-min of tail suspension (b). Wild-type (closed circles); PK2^-/- (open circles). The black blocks indicate the stressing period. (c) The hot-plate latency was also monitored after subcutaneous injection of various concentrations of morphine. There was no genotypic difference in morphine-induced analgesia; n=12-15 mice/genotype *, P<0.05; unpaired t test. Error bars, SEM.
Pain perception and stress-induced analgesia was measured. All the pain tests were carried out on a hot plate with a 55° C. surface, on which no basal difference was observed between WT and PK2^-/- mice. The cut-off time was set to 1 min to prevent tissue damage. Stress was induced by forced swimming for 3 min in 10° C. water, or suspending the tail for 5 minutes.

[2] = Sleep/wake recording after ICV infusion; type: in vivo; conditions: rats, 5 μg ICV at ZT 14, following 4 hours (ZT 14-18), vs CSF
Description: (§1) (a) Artificial cerebrospinal fluid (CSF) or 5 μg of PK2 was infused ICV to rats at ZT 14. Slow wave sleep (SWS), rapid eye movement sleep (REM) and active wake (AW) during the following 4 hours (ZT 14-18) were averaged and presented as mean±SEM; n=6 rats/group. (b) CSF or 5 μg of PK2 was infused ICV to rats at ZT 2 (day) or ZT 14 (night), the food intake in the following 24 hours were measured periodically and presented as mean±SEM. n=6-10 rats/group. (c) CSF or 4 μg of PK2 was infused ICV into mice. Anxiety-like behavior was monitored with a light-dark box assay 1 hour after infusion. n=12 mice/group. (d) CSF or 4 μg of PK2 was infused ICV into mice. Immobility in a forced swimming test was measured 1 hour after infusion; n=12 mice/group. *, P<0.05; unpaired t test. Error bars, SEM.
Recording and analysis of sleep/wake was performed. The sleep/wake recording in rats was carried out as described in reference. Digital recording was visually scored as slow wave sleep (SWS), rapid eye movement sleep (REM) and active wake (AW). For the mice, electroencephalogram (EEG) and electromyogram (EMG) signals were recorded using a lightweight implant and cabling procedure as described. […] The signals were digitally filtered (EEG, 0.3-30 Hz; EMG, 2-100 Hz) and semi-automatically scored in 4 second epochs as wake, NREM, or REM sleep using SleepSign sleep scoring software (Kissei Comtec America, California). […]

[3] = Food intake after ICV infusion; type: in vivo; conditions: rats, 5 μg ICV at ZT 2 (day) or ZT 14 (night), following 24 hours, vs CSF
Description: as §1
Food intake was measured. Mice food intake measurement was performed using a Comprehensive Lab Animal Monitoring System (CLAMS, Columbus Instruments, Columbus, Ohio). Feeding data were collected every 10 min for each mouse over a period of 5 days. The daily food intake was the total food consumed during 24 hours. For rats, the food pellets in the food bin were measured manually every 4-8 hours after drug infusion. The food intake was the total amount of food loaded subtracted by the amount of food left.
Intracerebroventricular infusion was utilized. […]

[4] = Light-dark box assay (anxiety-like behavior) after ICV infusion; type: in vivo; conditions: mice, 4 μg ICV, 1 hour after infusion, vs CSF
Description: as §1
The light-dark box was divided into a lit compartment (30×20×25 cm, illumination 400 lux) and a dark compartment (15×20×25 cm) connected by a 4-cm tunnel. The experiment was started by placing the animal in the dark compartment.
Numbers of transitions, total time spent in the lit compartment, and latency until the first exit were recorded on video and quantified during 10 minutes.
(§2) Intracerebroventricular infusion was utilized. Rats with cannula fit to the lateral ventricle were purchased from Charles River laboratory. […]

[5] = Forced swimming test (depression-like behavior) after ICV infusion; type: in vivo; conditions: mice, 4 μg ICV, 1 hour after infusion, vs CSF
Description: as §1
The Porsolt forced swim test was utilized. Animals were placed individually in cylinders (height 25 cm, diameter 11 cm) filled with 8-cm-deep water (temperature 22±1° C.) for 6 minutes The total period of immobility during the 6 minutes was recorded. Immobility was defined as no volitional body or limb movement.
as §2

O=CC[C@@H](O)[C@H](O)[C@H](O)CO [2-DG, 2-Dexoyl-D-glucose]
induction of PK2 mRNA in the PVN (PK2 mRNA in the PVN): induction was mimicked

CN1CC[C@]23c4c5ccc(O)c4O[C@H]2[C@@H](O)C=C[C@H]3[C@H]1C5 [morphine]
morphine-induced analgesia (hot-plate latency) [1]: indistinguishable between WT and PK2^-/- mice

B1: PK2: regulatory peptide that activates two closely related G protein-coupled receptors (PKR1, PKR2) (protein, UniProt Q9HC23 28-129, looked up)
Prokineticin-2: AVITGACDKDSQCGGGMCCAVSIWVKSIRICTPMGKLGDSCHPLTRKNNFGNGRQERRKRKRSKRKKEVPFFGRRMHHTCPCLPGLACLRTSFNRFICLAQK
arousal level [2]: significantly increased arousal level | food intake [3]: circadian phase-independent suppression of food intake | general activity (total entries) [4]: without significant effect on general activity | time spent in the lit compartment [4]: significantly less time spent in the lit compartment | time spent on immobility [5]: significantly increased the time spent on immobility
